Source: PMC2033583, “Temperature sensitivity for conformation is an intrinsic property of wild-type p53”

Biological target: p53 (murine wild-type) (mouse, UniProt P02340 1-390)
Assay: EMSA; 1,10-phenanthroline, 20 min at 30 C; PAb 421; at least partially resistant to chelator; EMSA on 4% polyacrylamide gels with PAb 421, reticulocyte lysate p53 pre-exposed to OP 20 min at 30 or 37 C; binding buffer, salt and pH not given (as in Hainaut and Milner 1993b)
Settings: protein: ivt; chain copies: 4; label: 32P

p53 (murine wild-type), sequence (P02340 whole entry): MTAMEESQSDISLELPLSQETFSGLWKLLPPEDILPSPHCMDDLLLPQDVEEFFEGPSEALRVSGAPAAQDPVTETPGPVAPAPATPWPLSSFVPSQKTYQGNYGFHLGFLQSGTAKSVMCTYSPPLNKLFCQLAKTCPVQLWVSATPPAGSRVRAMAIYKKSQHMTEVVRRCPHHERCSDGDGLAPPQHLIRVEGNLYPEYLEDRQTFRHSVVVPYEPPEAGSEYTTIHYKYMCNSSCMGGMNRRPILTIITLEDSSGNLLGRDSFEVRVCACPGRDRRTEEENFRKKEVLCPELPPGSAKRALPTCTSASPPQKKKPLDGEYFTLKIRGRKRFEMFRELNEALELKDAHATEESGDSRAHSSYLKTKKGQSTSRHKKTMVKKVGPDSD

B1: p53 CON (dsDNA)
DNA 1: GGGCATGTCCGGGCATGTCC
DNA 2: GGACATGCCCGGACATGCCC
- binding result: binds
